Results as given in patent US20250346660A1 (PARAGON THERAPEUTICS, published 2025).

T1: Recombinant Human IL-23 (human, UniProt Q9NPF7 20-189; P29460 23-328)
T1 sequence (looked up) 1: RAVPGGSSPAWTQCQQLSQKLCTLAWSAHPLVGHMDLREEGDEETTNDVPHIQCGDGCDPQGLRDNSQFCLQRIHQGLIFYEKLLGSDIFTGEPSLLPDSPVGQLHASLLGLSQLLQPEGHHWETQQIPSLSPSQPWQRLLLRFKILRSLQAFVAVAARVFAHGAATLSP
T1 sequence (looked up) 2: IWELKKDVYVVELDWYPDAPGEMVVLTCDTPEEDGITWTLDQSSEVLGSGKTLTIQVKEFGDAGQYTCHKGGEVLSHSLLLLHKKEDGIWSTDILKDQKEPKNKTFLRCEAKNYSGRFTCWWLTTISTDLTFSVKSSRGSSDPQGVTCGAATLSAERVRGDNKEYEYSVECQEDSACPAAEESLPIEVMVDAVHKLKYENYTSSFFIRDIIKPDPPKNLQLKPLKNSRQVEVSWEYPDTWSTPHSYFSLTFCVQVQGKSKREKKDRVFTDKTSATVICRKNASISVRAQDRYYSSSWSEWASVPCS


Columns and labels:
[1] = target: T1, Recombinant Human IL-23; experiment: cell-based or functional assay
[2] = target: T1, Recombinant Human IL-23; experiment: cell-based or functional assay; remark: listed apart in the source
[3] = target: T1, Recombinant Human IL-23; experiment: SPR (Biacore 8K), mAb captured on anti-human IgG, human IL-23 as analyte, 25 C, 1:1 model
Method: (§1) Reference Antibody 1 was used as a comparator. […] Anti-IL23 mAb constructs (diluted to 2 μg/mL) were captured onto flow cell 2 (active) for 60 sec at a flow rate of 10 μL/min. Recombinant Human IL-23 was prepared at concentrations of 0, 1.23, 3.7, 11.11, 33.33, 100 nM and injected over flow cell 1 (reference) and flow cell 2 (active) for 180 sec at a flow rate of 50 μL/min. Samples were injected in a multi-cycle manner over freshly captured mAb, by regenerating the capture surfaces with injection of 10 mM glycine, pH 1.5 for 30 sec at a flow rate of 30 μL/min. A 1:1 kinetic binding model was utilized to determine the apparent association (kₐ) and dissociation […] rate constants. Their ratio provides the apparent equilibrium dissociation constant or affinity constant ([…]).

[4] = target: T1, Recombinant Human IL-23; experiment: cell-based or functional assay; remark: listed apart in the source
[5] = target: T1, Recombinant Human IL-23; experiment: SPR (Biacore 8K), mAb captured on anti-human IgG, human IL-23 as analyte, 25 C, 1:1 model; below the limit of detection
Method: as §1

[6] = target: T1, Recombinant Human IL-23; experiment: SPR (Biacore 8K), mAb captured on goat anti-human IgG CM5 chip, human IL-23 as analyte, 25 C, 1:1 model
Method: as §1

Relative IC50, inhibition of IL-23-induced phosphorylation of STAT3 in DB cells (pSTAT3 sandwich ELISA) [1]	Relative IC50, inhibition of IL-23-induced release of IL-17 from human PBMCs [2]	kon [3]	Relative IC50, inhibition of IL-23-induced activation of STAT3 (luciferase reporter, HEK 293F IL-23R+/IL-12Rb1+ cells) [4]	koff [5]	Kd [6]	Binder
0.51 relative to Reference Antibody 1	0.67 relative to Reference Antibody 1	187000 M⁻¹ s⁻¹	0.57 relative to Reference Antibody 1	< 1e-06 s⁻¹	–	IL-23 antibody clone 107 (antibody, human IgG1, kappa, L234A L235A, V domains shown) VH: QVQLVQSGAEVKKPGSSVKVSCKASGYTFTAQTIHWMRQAPGQGLEWIGYIYPRDDTPKYNPNFKGKVTITADKSTSTAYMELSSLRSEDTAVYYCAIPDRSGYAWFDYWGQGTLVTVSS VL: DIQMTQSPSSLSASVGDRVTITCKASRDVAIAVAWYQQKPGKVPKLLIYWASTRHTGVPSRFSGSGSRTDFTLTISSLQPEDVADYFCHQYSSYPFTFGSGTKLEIKR
–	0.78 relative to Reference Antibody 1	271000 M⁻¹ s⁻¹	0.66 relative to Reference Antibody 1	< 1e-06 s⁻¹	< 6 pM	IL-23 antibody clone 203 (antibody, human IgG1, kappa, L234A L235A, V domains shown, Full antibody format) VH: EVQLLESGGGLVQPGGSLRLSCAASGYTFTDQTIHWVRQAPGKGLEWIGYIYPRDDSPKYNENFKGRATLSADKSKNTAYLQMNSLRAEDTAVYYCAIPDRSGYAWFIYWGQGTTVTVSS VL: EIVMTQSPATLSVSPGERATLSCKASRDVAIAVAWYQQKPGQAPRLLLFWASTRHTGIPARFSGSGSRTEFTLTISSLQSEDFAVYYCHQYSSYPFTFGGGTKVEIKR

Further lines, the binder ahead of its results:

Binder	Relative IC50, inhibition of IL-23-induced phosphorylation of STAT3 in DB cells (pSTAT3 sandwich ELISA) [1]	Relative IC50, inhibition of IL-23-induced release of IL-17 from human PBMCs [2]	kon [3]	Relative IC50, inhibition of IL-23-induced activation of STAT3 (luciferase reporter, HEK 293F IL-23R+/IL-12Rb1+ cells) [4]	koff [5]	Kd [6]
Reference Antibody 1 (antibody, human IgG1, kappa, L234A L235A, V domains shown, also called anti-human IL-23p19 antibody; parental antibody) VH: QVQLVQSGAEVKKPGSSVKVSCKASGYTFTDQTIHWMRQAPGQGLEWIGYIYPRDDSPKYNENFKGKVTITADKSTSTAYMELSSLRSEDTAVYYCAIPDRSGYAWFIYWGQGTLVTVSS VL: DIQMTQSPSSLSASVGDRVTITCKASRDVAIAVAWYQQKPGKVPKLLIYWASTRHTGVPSRFSGSGSRTDFTLTISSLQPEDVADYFCHQYSSYPFTFGSGTKLEIKR	1 relative to Reference Antibody 1	1 relative to Reference Antibody 1	167000 M⁻¹ s⁻¹	1 relative to Reference Antibody 1	< 1e-06 s⁻¹	–
IL-23 antibody clone 202 (antibody, human IgG1, kappa, L234A L235A, V domains shown, Full antibody format) VH: EVQLLESGGGLVQPGGSLRLSCAASGYTFTDQTIHWVRQAPGKGLEWIGYIYPRDDSPKYNENFKGRATLSADKSKNTAYLQMNSLRAEDTAVYYCAIPDRSGYAWFIYWGQGTTVTVSS VL: EIVMTQSPATLSVSPGERATLSCKASRDVAIAVAWYQQKPGQAPRLLLYWASTRHTGIPARFSGSGSRTEFTLTISSLQSEDFAVYYCHQYSSYPFTFGGGTKVEIKR	–	0.79 relative to Reference Antibody 1	210000 M⁻¹ s⁻¹	0.76 relative to Reference Antibody 1	< 1e-06 s⁻¹	–
